Measured values as given in publication PMC5686127 (2017).

What was measured:
CHD4 PHD1/2 (aa 361–503) = CHD4 PHD1/2 (aa 361–503) (human, UniProt Q14839 361-503); assay: 150 mM NaCl
CHD4 PHD2 (443–498) = CHD4 PHD2 (443–498) (human, UniProt Q14839 443-498); assay: 150 mM NaCl
CHD4 PHD1 (aa 362–417) = CHD4 PHD1 (aa 362–417) (human, UniProt Q14839 362-417); assay: 150 mM NaCl
[1] = target: T1, CHD4 PHD1-linker (aa 361–443) (human, UniProt Q14839 361-443); assay: 150 mM NaCl
[2] = target: CHD4 linker-PHD2 (aa 414–503) (human, UniProt Q14839 414-503); assay: 150 mM NaCl
CHD4 linker-PHD2 (aa 414–503), sequence (Q14839 414-503): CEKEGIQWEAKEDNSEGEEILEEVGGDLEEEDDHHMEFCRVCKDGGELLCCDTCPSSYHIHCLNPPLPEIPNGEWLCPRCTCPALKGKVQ

[3] = target: T1, CHD4 PHD1-linker (aa 361–443); assay: 75 mM NaCl

T1 sequence (Q14839 361-443): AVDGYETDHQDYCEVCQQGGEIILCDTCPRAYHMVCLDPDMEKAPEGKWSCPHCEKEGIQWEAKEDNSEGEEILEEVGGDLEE
CHD4 PHD1 (aa 362–417), sequence (Q14839 362-417): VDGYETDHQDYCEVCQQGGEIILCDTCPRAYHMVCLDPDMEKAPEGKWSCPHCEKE
CHD4 PHD2 (443–498), sequence (Q14839 443-498): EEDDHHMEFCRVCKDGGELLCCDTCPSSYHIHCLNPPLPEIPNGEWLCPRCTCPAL
CHD4 PHD1/2 (aa 361–503), sequence (Q14839 361-503): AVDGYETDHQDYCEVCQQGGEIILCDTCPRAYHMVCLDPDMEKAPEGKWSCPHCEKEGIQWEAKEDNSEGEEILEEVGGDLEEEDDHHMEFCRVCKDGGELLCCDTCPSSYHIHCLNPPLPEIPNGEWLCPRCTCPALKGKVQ

Kd (CHD4 PHD1/2 (aa 361–503)): 220 nM | Kd (CHD4 PHD2 (443–498)): 3000 nM | Kd (CHD4 PHD1 (aa 362–417)): 18000 nM | Kd [1]: 500 nM | Kd [2]: 270 nM | Kd [3]: 300 nM
Binder: ARTKQTARKSTG [histone H3 peptide (aa 1–12)]
